Test: soluble on expression in E. coli; label from the status in PepcDB or PDB records

Sequence | soluble on expression in E. coli
MPEIRLRHVVSCSSQDSTHCAENLLKADTYRKWRAAKAGEKTISVVLQLEKEEQIHSVDIGNDGSAFVEVLVGSSAGGAGEQDYEVLLVTSSFMSPSESRSGSNPNRVRMFGPDKLVRAAAEKRWDRVKIVCSQPYSKDSPFGLSFVRFHSPPDKDEAEAPSQKVTVTKLGQFRVKEEDESANHHHHHH | soluble
MPELSPLTYGHTDARLILRVGGSMGDVYGQRLLKRDLNGYILNEEGVGLAMENKETYLGSILPKMNMGWSLGFGYKGVNLGMTFTGRFGGIVISETQSVLDAAGVSKVSADVRDAGGVQINQSKVSAQTYYQTIQGTAAYYTYSATNVRLGELSLSYTLPKKWFDNKVGMTVGLVGKNLWMIYCKAPFDPELTTSAASNFYQGFDAYMLPSTRNFGFNVKFQF | not soluble
MPEPRCTAIVNFLNLSHSILISIFSVSVMSNYHHNHNYQHRPRGYERLPGKRLPDRWNIYDNVGRDIDGTRFVPFKTPLDSSFFDGKNMPVELQFGVKTLISLAQQANKQIGLVIDLTNTDRYYKKTEWADHGVKYLKLNCPGHEVNEREDLVQDFINAVKEFVNDKENDGKLIGVHCTHGLNRTGYLICRYMIDVDNYSASDAISMFEYYRGHPMEREHYKKSLYEAERKKKYGKSSGKSSGNSADSTISSEQLHRNNSQ | not soluble
MPFSQIGINGIVNLKKMHVKNYRAPQVSVLNFLPPRHIVLGLENLDIGLGSEFTANAVPIVVEGSLVGQITGMTVALTTELLTDVTGKMNAVVRNCSALIGNSHIVLNPTGPMSIFVKTFEPMINDSVRQRIPEMFCSRLQNLIEKNISKLFEFITKIDLEDYFPKASNVEKDVMNM | not soluble
MPGIDKLPIEETLEDSPQTRSLLGVFEEDATAISNYMNQLYQAMHRIYDAQNELSAATHLTSKLLKEYEKQRFPLGGDDEVMSSTLQQFSKVIDELSSCHAVLSTQLADAMMFPITQFKERDLKEILTLKEVFQIASNDHDAAINRYSRLSKKRENDKVKYEVTEDVYTSRKKQHQTMMHYFCALNTLQYKKKIALLEPLLGYMQAQISFFKMGSENLNEQLEEFLANIGTSVQNVRREMDSDIETMQQTIEDLEVASDPLYVPDPDPTKFPVNRNLTRKAGYLNARNKTGLVSSTWDRQFYFTQGGNLMSQARGDVAGGLAMDIDNCSVMAVDCEDRRYCFQITSFDGKKSSILQAESKKDHEEWICTINNISKQIYLSENPEETAARVNQSALEAVTPSPSFQQRHESLRPAAGQSRPPTARTSSSGSLGSESTNLAALSLDSLVAPDTPIQFDIISPVCEDQPGQAKAFGQGGRRTNPFGESGGSTKSETEDSILHQLFIVRFLGSMEVKSDDHPDVVYETMRQILAARAIHNIFRMTESHLLVTCDCLKLIDPQTQVTRLTFPLPCVVLYATHQENKRLFGFVLRTSSGRSESNLSSVCYIFESNNEGEKICDSVGLAKQIALHAELDRRASEKQKEIERVKEKQQKELNKQKQIEKDLEEQSRLIAASSRPNQASSEGQFVVLSSSQSEESDLGEGGKKRESEA | soluble
MPHMSEPQRLFFAIDLPAEIREQIIHWRATHFPPEAGRPVAADNLHLTLAFLGEVSAEKEKALSLLAGRIRQPGFTLTLDDAGQWLRSRVVWLGMRQPPRGLIQLANMLRSQAARSGCFQSNRPFHPHITLLRDASEAVTIPPPGFNWSYAVTEFTLYASSFARGRTRYTPLKRWALTQ | not soluble
MPHPCLSCGACCAYFRVSFHWSEADPALGGNVPIELTEPLRIHERVMHGTSQSHPRCIALDAEIGYRSRCTIHERRPSVCAAVPASLEFGTRSQQCDTSRRAHGLHLLTEADWAGVTNTERNPLPNELEHHHHHH | soluble
MPIDAMSDRNHAFASDEPPEIQVHPHDRYHAVIKKCASLPPLVTAVVHPVDSQVLSAVSDAVMEKLITPLLVGPAGRIEKAADEAGIDLSKWQVIDTPHSHAAAEKAVELAAAREVGAIMKGSLHTDELLGPIVARGSGLRTGRRLSHAYVMDTAGYHKWLIVTDAVVNISPDLCAKADICRNAVDAWVALTGESCLPKIAVLAAVEVVNAAMQATLDAAALCKMAERGQITGCIIDGPLAFDNAISRQAAKEKHIVSQVAGDADILLAPDIEAGNILAKQLTFISHADAAGVVMGAKVPVILTSRADNLRTRLLSCALAVLVQRAKEEGRIK | soluble
MPIGNLGHNPNVNNSIPPAPPLPSQTDGAGGRGQLINSTGPLGSRALFTPVRNSMADSGDNRASDVPGLPVNPMRLAASEITLNDGFEVLHDHGPLDTLNRQIGSSVFRVETQEDGKHIAVGQRNGVETSVVLSDQEYARLQSIDPEGKDKFVFTGGRGGAGHAMVTVASDITEARQRILELLEPKGTGESKGAGESKGVGELRESNSGAENTTETQTSTSTSSLRSDPKLWLALGTVATGLIGLAATGIVQALALTPEPDSPTTTDPDAAASATETATRDQLTKEAFQNPDNQKVNIDELGNAIPSGVLKDDVVANIEEQAKAAGEEAKQQAIENNAQAQKKYDEQQAKRQEELKVSSGAGYGLSGALILGGGIGVAVTAALHRKNQPVEQTTTTTTTTTTTSARTVENKPANNTPAQGNVDTPGSEDTMESRRSSMASTSSTFFDTSSIGTVQNPYADVKTSLHDSQVPTSNSNTSVQNMGNTDSVVYSTIQHPPRDTTDNGARLLGNPSAGIQSTYARLALSGGLRHDMGGLTGGSNSAVNTSNNPPAPGSHRFV | not soluble
MPKASQETKGLGSYDPKSATEKKFVITHRIKNISTLNIGNTYTSDVEDHFGFLWHLSYIYDGRFLRTTLNIDVNGRSALWSVGMKVRHMFVTKNGADHFHNSTDHVFSQEHNYGLTAITFFEDIKNKIFDDDMVYVDVEVTITKTSGFDRKKLRNFDTPENDWHVVLVAGGQKFYARTVVICNPNTDICELDVARGTEIVLENEDPLDLQIFLEALHGEDVISDTTLEIILLLAIKYRAIEIFSKCEKWLLEGSKMSPRKQLQMAIRCSFWELEQKCLSELKTKQDIQAVLPANLMSLDPNMVLTLFEKLLTVT | soluble
MPKIAEIEGTPNPNALKFVLKEPLTWGVAKSYDHAEQAVDDPLAAALFDIDHVTNVFYVDRWITITQDGGADWQDLAREVADPIRAAPAATDQSAAVVAAASRTLADLSEEDQQRLERINILLDEEVRPFLQHDGGDLHVLALEGNILRIHYQGACGTCPSSISGTLRGIEQLLRTIEPDIRVVSA | not soluble
MPKIISKRKFNILRKTKEEIFSQIVYTKKRNGLHKAAKEYYFKDKDFTIIEDQQDRPDKPEELDTPDIPKPPKPPKGPDQPEEPGQPGGPDDPNSGNKKMPKPDEFVTHRQLQEFKKDLLVELHEIFPTKPELKRVEEKVDVLFELQKAQGEQIRIQGEQIKELKVEQKAQGETLQLILQTLQKMNDRLDKIEGKMDKMESRMDKMETRLDKLESK | soluble
MPKIRIKLRGFDHKTLDASAQKIVEAARRSGAQVSGPIPLPTRVRRFTVIRGPFKHKDSREHFELRTHNRLVDIINPNRKTIEQLMTLDLPTGVEIEIKTVGGGR | soluble
MPKIVILPHQDLCPDGAVLEANSGETILDAALRNGIEIEHACEKSCACTTCHCIVREGFDSLPESSEQEDDMLDKAWGLEPESRLSCQARVTDEDLVVEIPRYTINHAREH | soluble
MPKKFASENPKVTAARDRKATAKKDEADKKAKATEDAKWVDNDKLNNRKMQRKEDDEKKREEALRRKEENRKLAEEEMSSLGNKKPAGAATQKVTRAHIHIRKEDEERINRELEEKRKQEAQKIEVAGDLLVENLNKLEVEEGEARNVDDALKVLGEEKALDDDKHPEKRMRAAYLAFEEARLPELKLNHPTFRLSQLKQILKKEWQKSPENPLNARLLALNS | soluble
MPKKPLIDQLHHEDSWRLFRILAEFVEGFETLSELQVPLVSVFGSARFGEGHPAYEAGYRLGRALAEAGFGVVTGGGPGVMEAVNRGAYEAGGVSVGLNIELPHEQKPNPYQTHALSLRYFFVRKVLFVRYAVGFVFLPGGFGTLDELSEVLVLLQTEKVHRFPVFLLDRGYWEGLVRWLAFLRDQKAVGPEDLQLFRLTDEPEEVVQALKAEAPPR | soluble

Reference: the DeepSol protein solubility set
